Earlier results on one substance are cited in patent publication US6303637A, “Heterocyclic potassium channel inhibitors” (Merck & Co., Inc., priority 1999, dated 2001).

The data set has as its target T1, Kv 1.3 channels (Homo sapiens, UniProt P22001).
T1 construct: expressed in transfected cells; host or cells: CHO cells
The following applies: margatoxin used at saturating concentration to establish the efflux window; read-out: IC50 (blocker of Kv 1.3 channels).

T1 sequence (P22001 whole entry): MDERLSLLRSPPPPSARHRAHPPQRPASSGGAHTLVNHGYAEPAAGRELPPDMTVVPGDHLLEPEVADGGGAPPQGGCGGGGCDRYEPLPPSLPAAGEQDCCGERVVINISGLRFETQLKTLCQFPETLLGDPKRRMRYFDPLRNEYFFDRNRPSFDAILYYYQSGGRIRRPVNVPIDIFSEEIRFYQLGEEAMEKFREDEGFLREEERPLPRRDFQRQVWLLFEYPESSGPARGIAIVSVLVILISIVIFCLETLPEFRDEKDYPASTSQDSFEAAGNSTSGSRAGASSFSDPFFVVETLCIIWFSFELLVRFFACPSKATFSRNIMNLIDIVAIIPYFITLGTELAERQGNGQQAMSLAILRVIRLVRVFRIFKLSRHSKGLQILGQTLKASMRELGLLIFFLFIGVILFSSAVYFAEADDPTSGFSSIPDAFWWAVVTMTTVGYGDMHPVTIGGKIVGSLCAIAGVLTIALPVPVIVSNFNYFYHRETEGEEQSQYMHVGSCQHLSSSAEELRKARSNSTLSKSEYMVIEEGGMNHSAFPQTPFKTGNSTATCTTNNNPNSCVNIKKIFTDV

Consider “margatoxin (TIINVKCTSPKQCLPPCKAQFGQSAGAKCMNGKCKCYPH; UniProt P40755 1-39, looked up)”, for which the IC50 – broadly, the concentration that gives 50% inhibition – was 0.1 nM.
